From doi:10.1101/2024.02.29.582524
Each block holds one substance with its values, some of them ahead of it.

Key:
[1] = biological target: Ustilago maydis Jps1, full length (Jps1^1-609) (Ustilago maydis); assay: mass photometry
[2] = biological target: Ustilago maydis Jps1, full length (Jps1^1-609) (Ustilago maydis); assay: SEC-MALS
[3] = biological target: Hebeloma cylindrosporum Jps1 (HcJps1) (Hebeloma cylindrosporum); assay: SEC-MALS
[4] = biological target: Ustilago maydis Jps1^1-484 M^5 (alanine replacements of the basic cluster R162, R163, R164) (Ustilago maydis); assay: SEC-MALS
[5] = biological target: Sporisorium reilianum Jps1 (SrJps1) (Sporisorium reilianum); assay: mass photometry
[6] = biological target: Sporisorium reilianum Jps1 (SrJps1) (Sporisorium reilianum); assay: SEC-MALS
[7] = biological target: Ustilago maydis Jps1 lacking the unstructured C-terminus (Jps1^1-484) (Ustilago maydis); assay: SAXS
[8] = biological target: Ustilago maydis Jps1 lacking the unstructured C-terminus (Jps1^1-484) (Ustilago maydis); assay: SEC-MALS

Substance: Ustilago maydis Jps1, full length (Jps1^1-609) (natural protein)
percent of particles in the dimer fraction (125 kDa) [1]: 69%
percent of particles in the monomer fraction (64 kDa) [1]: 9%
stoichiometry N [1]: 2
stoichiometry N [2]: 2

Substance: Hebeloma cylindrosporum Jps1 (HcJps1) (natural protein)
stoichiometry N [3]: 2

Substance: Ustilago maydis Jps1^1-484 M^5 (alanine replacements of the basic cluster R162, R163, R164) (domain or fragment)
stoichiometry N [4]: 2

The next lines start with the values.

stoichiometry N [5]: 2
stoichiometry N [6]: 2
Substance: Sporisorium reilianum Jps1 (SrJps1) (natural protein)

stoichiometry N [7]: 2
stoichiometry N [8]: 2
Substance: Ustilago maydis Jps1 lacking the unstructured C-terminus (Jps1^1-484) (domain or fragment)
